According to patent publication US12583888B2, “Bi-specific extracellular matrix binding peptides and methods of use thereof” (University of Tartu, priority 2019, dated 2026):
No end group written: not given here.

Columns and labels:
U87-MG cells = test: Cell binding and internalization of CF555-labeled AgNPs; assay type: cell-based, human; conditions: NRP-1-positive U87-MG, 1 h incubation
Procedure: (§1) U87-MG, PPC1, and M21 cells cultured on glass coverslips were incubated with CF555-labeled AgNPs at 37° C. for 1 hour, followed by washing with medium to remove background AgNPs. Etching solution freshly diluted from 0.2 M stock solutions of Na2S2O3 and K3Fe(CN)6 to 10 mM working concentration in PBS was applied to cells for 3 minutes, followed by PBS washes. The cells on coverslips were fixed with −20° C. methanol for 1 minute. The cell membrane was visualized by staining with Alexa Fluor 488-labeled wheat germ agglutinin (WGA) at 1:1000 at RT for 1 h. […] Fluoromount-G (Electron Microscopy Sciences) medium was used to mount the coverslips on microscope slides for confocal imaging.

PPC1 cells = test: as above; assay type: cell-based; conditions: NRP-1-positive PPC1, 1 h incubation
Procedure: as §1

U87-MG xenograft = test: In vivo fluorescence imaging with the IVIS Spectrum system; parameters: species or system mice
Procedure: Live imaging of PL3 peptide tumor homing was assessed by in vivo fluorescence imaging with the IVIS Spectrum imaging system (PerkinElmer, Waltham, MA) in U87-MG xenograft mice model (Male, 18-20 weeks of age). AgNPs with CF647 dye-labeled neutravidin coating was functionalized with biotinylated PL3 peptide (AgNP-PL3) or control biotin (AgNP). AgNP PL3 and AgNP particles were injected intravenously into the mice. For assessment of tumor PL3 targeted delivery and homing by IVIS, mice were placed in a dark imaging chamber under isoflurane anesthesia, and imaged with the following parameters. Specific excitation filter, 650 nm; emission filter, 665 nm; auto exposure time; binning, medium; field of view, 12; f/stop, 2; open filter. The images were captured at pre-injection (0 hours) and five-hour post-injection. The signal was expressed in total Radiant Efficiency [p/s]/[μW/cm^2]. The regions of interest (ROIs) were drawn covering the whole tumor in each mouse after tissue background correction, and radiant efficiency signal was quantitated. An automated spectral unmixing algorithm was used, images were analyzed by using Living Image 4.4 software (Caliper Life Sciences, Hopkinton, MA). Three animals per experimental group were analyzed. For the receptor blocking studies, PL3-AgNP injection was preceded by systemic pre-injection of blocking TNC-C and/or NRP1 antibodies (30 μg/mouse) 15 minutes prior to injection of the AgNPs.

[1] = system: Neuropilin 1 b1b2 domain (NRP1) and Fn-EDB; test: PL2 phage binding to purified NRP1 together with Fn-EDB
Procedure: For cell-free binding studies using individually amplified phage clones; phage was incubated with Fn-EDB coated magnetic beads as described above. RPARPAR phage on NRP-1-coated beads was used as a positive control (Teesalu et al., 2009), Nucleolin (NCL) and Tenascin C-C domain (TNC-C) were used as negative control. Phage clones displaying heptaglycine peptide (GGGGGGG, G7 (SEQ ID NO:20)) or insert less phage clones were used as negative controls.

FN-EDB and TNC-C [2] = test: Peptide-phage binding to FN-EDB- and TNC-C-coated magnetic beads; conditions: phage-displayed peptide
Procedure: (§2) To identify bispecific peptides that interact with both TNC-C and FN-EDB, cross screens were performed on both targets. During the first round of selection, microtiter plates coated with 20 μg/ml recombinant purified TNC-C were blocked with PBS containing 1% bovine serum albumin (BSA), followed by incubation with 5×10^8 pfu of phages in PBS at 4° C. overnight, by washes to remove background, and by phage rescue and amplification in BLT5403 strain of E. coli (Novagen, EMD Biosciences, MA, USA) (Teesalu et al., Methods Enzymol. 503:35-56 (2012)). The following rounds of biopanning were carried on Ni-NTA Magnetic Agarose Beads (QIAGEN, Hilden, Germany) coated with hexahistidine-tagged FN-EDB (3 μg/μl beads) at room temperature. After 5 rounds of selection, a set of random clones was sequenced, and individual peptide-phage clones and control (G7 peptide-displaying or insertless) phages were incubated with FN-EDB and TNC-C-coated magnetic beads. RPARPAR phage (SEQ ID NO:5) and His-tagged NRP-1 b1b2 domain were used as positive control (Teesalu et al., Proc. Natl. Acad. Sci. U.S.A 106:16157-62 (2009)). To address the specificity of the peptide phage binding to the FN-EDB and TNC-C, the protein-coated beads were pre-incubated with 20 μg/ml blocking rabbit polyclonal antibodies.

NRP-1 b1b2 domain = target: T1, NRP-1 b1b2 domain (Homo sapiens, UniProt O14786); test: PL1 phage binding to recombinant control protein NRP-1; conditions: phage-displayed peptide
T1 construct: His-tagged NRP-1 b1b2 domain were used as positive control; His tag; made in house
T1 sequence (O14786 273-586 limits assumed): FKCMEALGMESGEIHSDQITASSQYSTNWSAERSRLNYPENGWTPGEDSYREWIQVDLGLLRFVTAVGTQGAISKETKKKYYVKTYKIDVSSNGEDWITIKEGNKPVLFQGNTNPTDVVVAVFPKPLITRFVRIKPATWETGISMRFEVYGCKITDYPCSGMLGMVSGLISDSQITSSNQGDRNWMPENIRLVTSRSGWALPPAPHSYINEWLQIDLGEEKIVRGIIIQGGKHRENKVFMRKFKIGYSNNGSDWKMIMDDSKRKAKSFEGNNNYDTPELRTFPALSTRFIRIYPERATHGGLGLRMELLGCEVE
Procedure: as §2

FN-EDB and TNC-C [3] = test: Cell-free peptide binding assay (immobilized FAM-peptide, His-tagged protein, ELISA)
Procedure: The FAM-labeled peptides were coated on ELISA plates (Nunc Maxisorp, Thermo Fisher Scientific Inc., MA, USA), blocked with PBS containing 1% BSA, and incubated with recombinant proteins at 2 μg/well in PBS for 6 h. The protein was detected using an anti-His-tag antibody, followed by horseradish peroxidase-conjugated secondary antibody, chromogenic reaction, and measurement of absorbance at 450 nm with a microplate reader (Tecan Austria GmbH, Gradig, Austria).

fibronectin EDB-domain = target: T2, fibronectin EDB-domain (Homo sapiens, UniProt P02751); test: PL3 phage binding to fibronectin EDB-domain
T2 construct: made in house; host or cells: E. coli BL21 Rosetta 2 (DE3) pLysS
T2 sequence (P02751 with tags, fused parts or gaps): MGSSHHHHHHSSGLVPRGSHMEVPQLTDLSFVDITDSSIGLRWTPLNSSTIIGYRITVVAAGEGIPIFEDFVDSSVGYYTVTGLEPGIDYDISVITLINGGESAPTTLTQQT
Source text: The recovered phage was tittered and amplified for a subsequent round of selection. […] RPARPAR phage on NRP-1-coated beads was used as a positive control (Teesalu et al., 2009). Phage clones displaying heptaglycine peptide (GGGGGGG, G7 (SEQ ID NO:20)) or insert less phage clones were used as negative controls.

P13 tumor = conditions: i.v. equimolar mix, 2 h circulation
Source text: (§3) In vivo play-off was used to evaluate systemic homing of peptide phage to xenograft tumor models. The in vitro selected candidate TNC-C binding peptides, phages displaying published tumor homing peptides, and control peptides were amplified and purified by precipitation with PEG-8000 (Sigma-Aldrich, St. Louis, MO, USA), followed by CsCl2 gradient ultracentrifugation and dialysis. The amplified phage peptides were pooled in equimolar quantities, and injected intravenously (final 1×10^10 pfu in 200 μl PBS) in tumor-bearing mice for two hour circulation, after which mice were anesthetized with 2.5% avertin and intracardially perfused with DMEM intracardially. The tumors and organs were collected in lysogeny broth (LB)+1% NP40, and the tissues were homogenized using a hand-held homogenizer for phage peptide rescue. Phages in the tissue lysates were amplified in E. coli, purified by precipitation with PEG-8000 and DNA was extracted using a DNA extraction kit (High Pure PCR Template Preparation Kit; Roche, Basel, Switzerland). Next-generation sequencing of phage genomic DNA evaluated the representation of each phage in input mixture, in tumor and control organs with Ion Torrent system (Thermo Fisher Scientific, Waltham, MA, USA). The next generation deep sequencing of phage library was done using Ion Torrent according to the manufacturer's protocol with slight modification. The FASTQ data from Ion Torrent was processed by a custom python script that identified the barcodes, constant flanking residues, and extracted the reads of the correct length.

P3 stem cell-like tumor = conditions: i.v. equimolar mix, 2 h circulation
Source text: as §3

[4] = system: PC3 prostate carcinoma xenografts; conditions: i.v. equimolar mix, 2 h circulation
Source text: as §3

U87-MG glioblastoma = conditions: i.v. equimolar mix, 2 h circulation
Source text: as §3

WT-GBM tumor = conditions: i.v. equimolar mix, 2 h circulation
Source text: as §3

normal brain = conditions: i.v. equimolar mix, 2 h circulation
Source text: as §3

M21 cells = test: Cell binding and internalization of CF555-labeled AgNPs; assay type: cell-based; conditions: NRP-1-negative M21, 1 h incubation
Procedure: as §1

For “PL3-AgNPs: dye-labeled neutravidin-coated silver nanoparticles functionalized with biotinylated PL3 peptide (AGRGRLVR; also: biotinylated, bound to dye-labeled neutravidin-coated silver nanoparticles)”, the cellular uptake (U87-MG cells) was “robustly endocytosed with perinuclear accumulation”, the cellular uptake (PPC1 cells) was “robustly endocytosed with perinuclear accumulation” and the “accumulation in glioma lesions more than control non-peptide CF647-AgNP” value (U87-MG xenograft; 5 hours, i.v.) was roughly 10 fold. For the same substance, the “tumor homing on coadministration with blocking antibodies” value (U87-MG xenograft; cocktail of both antibodies) was “almost completely inhibited the tumor accumulation” and the “tumor homing on coadministration with blocking antibodies” value (U87-MG xenograft; rabbit polyclonal antibodies against either TNC-C or NRP-1) was “decrease in tumor homing”.
TSKQNSR [PL2] was tested, and the “binding of phage-displayed peptide to Fn-EDB and NRP1” value [1] was “bind specifically to both Fn-EDB and NRP1”.
For PPRRGLIKLKTS [PL1], the “Binding Specificity” value (FN-EDB and TNC-C [2]) was “TNC-C + FN-EDB”, the “interaction of phage with recombinant control protein NRP-1” value (NRP-1 b1b2 domain) was “did not interact” and the “binding to FN-EDB and TNC-C on phage and as synthetic FAM-labeled peptide” value (FN-EDB and TNC-C [3]) was “retained the ability to bind to both FN-EDB and TNC-C”.
With PPRRGLIKLKTSSNTKENSVVASLRP [PL5] the “Binding Specificity” value (FN-EDB and TNC-C [2]) was “TNC-C + FN-EDB”.
In the case of AGRGRLVR [PL3], the “binding to fibronectin EDB-domain” value (fibronectin EDB-domain) is reported as “did not bind”, the “Representation of phage in tumors (fold G7 control phage), P13” value (P13 tumor) is reported as 4.7 fold and the “Representation of phage in tumors (fold G7 control phage), P3 SCL” value (P3 stem cell-like tumor) is reported as 2.1 fold. The “Representation of phage in tumors (fold G7 control phage), PC3” value [4] was 3.9 fold, the “Representation of phage in tumors (fold G7 control phage), U87-MG” value (U87-MG glioblastoma) was 2.1 fold and the “Representation of phage in tumors (fold G7 control phage), WT-GBM” value (WT-GBM tumor) was 24.1 fold. For the same substance, the “Representation of phage in control brain tissue (fold G7 control phage), Norm. brain” value (normal brain) was 0.4 fold and the cellular uptake (M21 cells) was “low background-like uptake”.
